Positions count from the first letter of the chain named. Each block holds one binder with its values, some of them ahead of it.
Tests used:
[1] = biological target: T1, full-length human LAG3 on the cell surface (transfected CHO-S or Jurkat cells) (human, UniProt P18627 23-525); assay: flow cytometry on Jurkat cells expressing full-length human LAG3, anti-mouse IgG-FITC
T1 construct: whole, on cells; also called LAG3 on the cell membrane
T1 sequence (looked up): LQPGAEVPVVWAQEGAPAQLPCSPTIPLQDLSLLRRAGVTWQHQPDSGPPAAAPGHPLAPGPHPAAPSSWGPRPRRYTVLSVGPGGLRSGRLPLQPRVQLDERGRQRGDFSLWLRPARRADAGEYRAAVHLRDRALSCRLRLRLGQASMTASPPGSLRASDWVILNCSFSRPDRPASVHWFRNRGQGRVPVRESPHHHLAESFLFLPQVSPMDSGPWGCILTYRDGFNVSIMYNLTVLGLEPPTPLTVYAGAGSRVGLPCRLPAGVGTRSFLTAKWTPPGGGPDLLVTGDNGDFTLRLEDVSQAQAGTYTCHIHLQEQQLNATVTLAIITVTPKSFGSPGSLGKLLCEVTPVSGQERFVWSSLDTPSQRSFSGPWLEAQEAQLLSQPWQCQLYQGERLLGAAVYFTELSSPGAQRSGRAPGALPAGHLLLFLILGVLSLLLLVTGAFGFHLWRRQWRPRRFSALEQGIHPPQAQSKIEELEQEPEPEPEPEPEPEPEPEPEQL
Experimental: (§1) The transfected Jurkat cells expressing the full-length human LAG3 gene are taken and washed twice with PBS (2% FBS), and the cell concentration is adjusted to 2×10⁵/100 μl. […] The cells are centrifuged at 500×g for 5 min. […] The cells are washed twice with PBS (2% FBS). […] The cells are washed twice with PBS (2% FBS). The cells are suspended in 200 μl PBS and analyzed by flow cytometry.

[2] = biological target: T1, full-length human LAG3 on the cell …; assay: flow cytometry on Jurkat cells expressing full-length human LAG3, anti-human IgG Fab-FITC
Experimental: as §1

[3] = biological target: T2, Recombinant mouse LAG3-Fc fusion protein (mouse, UniProt Q61790 24-442, limits assumed); assay: ELISA, plate coated with mouse LAG3-Fc
T2 construct: Bought; not shown: Fc part; not described
T2 sequence (looked up): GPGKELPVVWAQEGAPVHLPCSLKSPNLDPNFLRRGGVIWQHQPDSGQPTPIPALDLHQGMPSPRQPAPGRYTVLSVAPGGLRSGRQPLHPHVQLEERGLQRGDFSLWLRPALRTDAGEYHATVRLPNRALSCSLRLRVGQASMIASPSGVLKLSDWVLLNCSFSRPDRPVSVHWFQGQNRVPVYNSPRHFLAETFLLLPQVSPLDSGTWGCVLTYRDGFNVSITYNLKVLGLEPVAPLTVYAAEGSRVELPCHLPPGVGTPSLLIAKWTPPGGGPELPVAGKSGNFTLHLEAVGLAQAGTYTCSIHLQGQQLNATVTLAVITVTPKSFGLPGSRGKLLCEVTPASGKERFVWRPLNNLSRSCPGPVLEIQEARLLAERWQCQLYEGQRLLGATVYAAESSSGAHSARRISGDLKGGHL
Experimental: The plate is washed 3 times with PBS containing 0.05% Tween 20 (PBST). The plate is blocked with PBS containing 5% skimmed milk for 1 hour at room temperature. […] The plate is washed 3 times with PBST, and 30 μl of 1:2000 diluted horseradish peroxidase-labeled goat anti-human IgG kappa light chain secondary antibody (millipore) is added thereto, and the plate is allowed to stand at room temperature for 1 hour. The plate is washed 6 times with PBST, and TMB is added thereto for color development. The reaction is stopped with 2M H₂SO₄. The plate is read at 450 nm with a microplate reader.

[4] = biological target: T3, LAG3-Fc recombinant protein (UniProt P18627 23-450); assay: ELISA on coated LAG3-Fc, anti-human kappa-HRP
T3 construct: also called LAG3-Fc (Acro); LAG3-Fc protein; not shown: Fc part
T3 sequence (looked up): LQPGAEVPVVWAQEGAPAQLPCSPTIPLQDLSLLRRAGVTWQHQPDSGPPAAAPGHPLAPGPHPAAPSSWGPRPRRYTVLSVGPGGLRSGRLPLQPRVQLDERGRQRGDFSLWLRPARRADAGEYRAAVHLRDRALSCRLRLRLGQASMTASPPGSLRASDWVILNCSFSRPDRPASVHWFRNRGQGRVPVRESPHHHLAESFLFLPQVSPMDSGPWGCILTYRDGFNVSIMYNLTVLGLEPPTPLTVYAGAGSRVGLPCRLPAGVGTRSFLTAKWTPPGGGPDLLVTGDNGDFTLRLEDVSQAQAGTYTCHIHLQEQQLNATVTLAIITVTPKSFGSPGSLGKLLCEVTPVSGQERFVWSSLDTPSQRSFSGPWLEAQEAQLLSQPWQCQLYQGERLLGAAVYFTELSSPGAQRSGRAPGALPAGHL
Experimental: The affinity of the humanized antibody for LAG3 is detected by an ELISA technique. […] The plate is washed 3 times with PBS containing 0.05% Tween 20 (PBST). The plate is blocked with PBS containing 5% skimmed milk for 1 hour at room temperature. […] The plate is washed 3 times with PBST, and 30 μl of 1:4000 diluted horseradish peroxidase-labeled goat anti-human IgG kappa light chain secondary antibody (Millipore) is added thereto, and the plate is allowed to stand at room temperature for 1 hour. The plate is washed 6 times with PBST, and TMB is added thereto for color development. The reaction is stopped with 2M H₂SO₄. The plate is read at 450 nm with a microplate reader.

[5] = biological target: T1, full-length human LAG3 on the cell …; assay: flow cytometry on CHO-S cells expressing full-length human LAG3 [panel 6A]
Experimental: (§2) The binding of the humanized antibodies to LAG3 on the cell surface is determined by a flow cytometry method. The transfected CHO-S or Jurkat cells expressing the full-length human LAG3 gene are taken and washed twice with PBS (2% FBS), and the cell concentration is adjusted to 5×10⁵/100 μl. 1:3 gradient-diluted anti-LAG3 humanized antibody is added, and incubated at 4° C. for 30 min. […] The cells are centrifuged at 500×g for 5 min. The cells are washed twice with PBS (2% FBS). 1:300 diluted goat anti-human IgG Fab-FITC (Thermo Fisher) is added, and incubated at 4° C. for 30 min. The cells are washed twice with PBS (2% FBS). The cells are suspended in 200 μl PBS and analyzed by flow cytometry.

[6] = biological target: T3, LAG3-Fc recombinant protein; assay: SPR, LAG3-Fc immobilized on the chip, antibody in flow, 1:1 Langmuir fit
Experimental: (§3) Surface plasmon resonance (SPR) is used to measure the binding affinity and kinetic constants of the anti-LAG3 humanized antibody for the LAG3 protein. […] The data obtained from the experiments are analyzed using an evaluation software, and the curve is fitted with a 1:1 Langmuir binding model.

Tag1-LAG3 protein = biological target: T4, Tag1-LAG3 protein (UniProt P18627 23-450); assay: HTRF blocking assay (Cisbio kit): Tag1-LAG3 with Tag2-FGL1 and antibody
T4 construct: also called LAG3 (Cisbio kit)
Experimental: The mixture is reacted at room temperature for 15 minutes, and then 10 μL of pre-mixed anti-Tag1-Tb3+ and anti-Tag2-XL665 are added thereto.

[7] = biological target: T1, full-length human LAG3 on the cell …; assay: flow cytometry on Jurkat cells expressing full-length human LAG3 [panel 6B]
Experimental: as §2

[8] = biological target: T5, Recombinant cynomolgus monkey LAG3-Fc fusion protein (cynomolgus monkey); assay: SPR, cynomolgus monkey LAG3-Fc immobilized on the chip, antibody in flow, 1:1 Langmuir fit
T5 construct: Bought; also called cynomolgus monkey LAG3-Fc protein
Experimental: as §3, with “for the cynomolgus monkey LAG3 protein.” for “for the LAG3 protein.”

[9] = biological target: T3, LAG3-Fc recombinant protein; assay: flow cytometry blocking assay: antibody premixed with LAG3-Fc (2 µg/ml), binding to MHC II on Raji cells
Experimental: Raji cells are washed twice with PBS (2% FBS), and the cell concentration is adjusted to 2×10⁵/100 μl. […] The mixture is then mixed with the Raji cells and incubated at 4° C. for 60 min. The cells are centrifuged at 500×g for 5 min. The cells are washed twice with PBS (2% FBS). 1:500 diluted goat anti-human IgG-Fc-Alexa Fluor 488 (Jackson) is added, and incubated at 4° C. for 60 min. The cells are washed twice with PBS (2% FBS). The cells are suspended in 200 μl PBS and analyzed by flow cytometry.

[10] = biological target: T3, LAG3-Fc recombinant protein; assay: ELISA blocking assay: antibody mixed with LSECtin, added to coated LAG3-Fc, bound LSECtin detected with anti-His-HRP
Experimental: The plate is washed 3 times with PBS containing 0.05% Tween 20 (PBST). […] The plate is washed 6 times with PBST, and TMB is added thereto for color development. The reaction is stopped with 2M H₂SO₄. The plate is read at 450 nm with a microplate reader.

binding result [1]: binds
B1: anti-LAG3 murine antibody 6H11B10 (antibody, V domains shown)
VH: EVQVVESGGGLVKPGGSLKLSCAASGFTFSDYYMFWVRQTPEERLEWVATINDGGDYTNYPDSVKGRFTISRDNDKNKLYLQMNSLKSEDTAMYYCARESGIYYDYASFGYWGQGTLVTVSS
VL: DIVMTQAAFSNPVTLGTSASISCRSSKSLLYSNGITYLYWYLQKPGQSPQLLIYQMSNLASGVPDRFSSSGSGTDFTLRISRVEAEDVGVYYCAQNLELPWTFGGGTKLEIKRNL
notes: also called m6H11B10; monoclonal hybridoma cell line 6H11B10

binding result [2]: binds
B2: anti-LAG3 chimeric antibody c6H11B10 (antibody, human IgG4 S228P, V domains shown)
VH: B1 VH
VL: DIVMTQAAFSNPVTLGTSASISCRSSKSLLYSNGITYLYWYLQKPGQSPQLLIYQMSNLASGVPDRFSSSGSGTDFTLRISRVEAEDVGVYYCAQNLELPWTFGGGTKLEIKR
notes: Expressed in CHO-S cells; also called chimeric antibody protein c6H11B10

binding result [3]: binds
EC50 (read off the curve) [4]: ~0.3 µg/mL
EC50 (read off the curve) [5]: ~0.3 µg/mL
B3: anti-LAG3 humanized antibody h6H11B10 (antibody, human IgG4 S228P)
heavy: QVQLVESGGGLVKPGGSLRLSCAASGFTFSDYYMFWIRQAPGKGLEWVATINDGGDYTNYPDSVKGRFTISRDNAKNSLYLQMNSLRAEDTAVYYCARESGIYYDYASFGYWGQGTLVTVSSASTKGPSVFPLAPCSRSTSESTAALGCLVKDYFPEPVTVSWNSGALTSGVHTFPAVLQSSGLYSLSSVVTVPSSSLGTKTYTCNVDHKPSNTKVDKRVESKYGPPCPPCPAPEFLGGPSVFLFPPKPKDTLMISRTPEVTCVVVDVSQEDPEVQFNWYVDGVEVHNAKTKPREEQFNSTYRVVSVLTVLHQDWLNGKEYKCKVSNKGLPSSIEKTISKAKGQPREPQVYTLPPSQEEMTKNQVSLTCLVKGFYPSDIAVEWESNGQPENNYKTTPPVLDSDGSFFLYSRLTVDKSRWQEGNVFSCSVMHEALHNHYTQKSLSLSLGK
light: DIVMTQSPLSLSVTPGEPASISCRSSKSLLYSNGITYLYWYLQKPGQSPQLLIYQMSNLASGVPDRFSGSGSGTDFTLKISRVEAEDVGVYYCAQNLELPWTFGGGTKLEIKRNLAAPSVFIFPPSDEQLKSGTASVVCLLNNFYPREAKVQWKVDNALQSGNSQESVTEQDSKDSTYSLSSTLTLSKADYEKHKVYACEVTHQGLSSPVTKSFNRGEC
notes: Expressed in CHO-S cells

EC50 (read off the curve) [4]: ~0.2 µg/mL
Kd [6]: 0.313 nM
koff [6]: 1.37e-05 s⁻¹
kon [6]: 43500 M⁻¹ s⁻¹
IC50 (read off the curve) (Tag1-LAG3 protein): ~2 µg/mL
EC50 (read off the curve) [5]: ~0.4 µg/mL
EC50 (read off the curve) [7]: ~0.01 µg/mL
Kd [8]: 1.42 nM
koff [8]: 3.09e-05 s⁻¹
kon [8]: 21700 M⁻¹ s⁻¹
IC50 (read off the curve) [9]: ~0.5 µg/mL
IC50 (read off the curve) [10]: ~1 µg/mL
B4: anti-LAG3 humanized antibody h6H11B10#40 (antibody, human IgG4 S228P)
heavy: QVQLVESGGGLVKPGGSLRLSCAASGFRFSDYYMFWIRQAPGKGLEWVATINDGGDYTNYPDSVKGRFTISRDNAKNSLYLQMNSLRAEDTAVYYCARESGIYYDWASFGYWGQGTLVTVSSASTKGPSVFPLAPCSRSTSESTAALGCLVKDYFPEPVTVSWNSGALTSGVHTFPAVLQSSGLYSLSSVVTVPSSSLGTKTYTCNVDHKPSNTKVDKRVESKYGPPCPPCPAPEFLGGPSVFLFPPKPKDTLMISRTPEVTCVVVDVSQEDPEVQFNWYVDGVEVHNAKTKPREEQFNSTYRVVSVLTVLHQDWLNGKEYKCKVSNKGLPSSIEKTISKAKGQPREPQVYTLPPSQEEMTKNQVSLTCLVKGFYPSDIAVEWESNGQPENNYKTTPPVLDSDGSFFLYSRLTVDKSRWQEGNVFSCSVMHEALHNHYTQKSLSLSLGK
light: B3 light with L30K
notes: Expressed in CHO-S cells
